Measurements: paper PMC2696313

Target: Δ41-52 hPRL (human prolactin with residues 41-52 removed) (human) (UniProt P01236)
Assay: mass spectrometry

Δ41-52 hPRL (human prolactin with residues 41-52 removed) (from UniProt P01236 29-227) (ligand)
stoichiometry N: 2
